Reference: the RNAGym collection of RNA variant scans (doi:10.7554/elife.80360)

B1: Hairpin Ribozyme (parent)
chain: GUCCUCUUUCACGUGCGCGUGAAAGAGAGAAGUGAACCAGAGAAACACACGUUGUGGUAUAUUACCUGGUA

Variants of: B1
Assay: self-cleavage, relative activity (ratio to wild type); higher = more cleavage; co-transcriptional

Row | Variant | self-cleavage
1 | GUCCUCUUUCACGUGCGCGUGAAAGAGAGAAGUGAACCAGAGAAAGACACGUUGUGGUAUAUUGCCUGGUA [C46G A64G] | 0.144
2 | GUCCUCUUUCACGUGCGCGUGAAAGAGAGAAGUGAACCAGAGAAAGACACGUUGUGGUAUAUUUCCUGGUA [C46G A64U] | 0.185
3 | GUCCUCUUUCACGUGCGCGUGAAAGAGAGAAGUGAACCAGAGAAAGACACGUUGUGGUAUAUUCCCUGGUA [C46G A64C] | 0.152
4 | GUCCUCUUUCACGUGCGCGUGAAAGAGAGAAGUGAACCAGAGAAAUACACGUUGUGGUAUUUUACCUGGUA [C46U A61U] | 0.267
5 | GUCCUCUUUCACGUGCGCGUGAAAGAGAGAAGUGAACCAGAGAAAUACACGUUGUGGUAUAUUACCUGGGA [C46U U70G] | 0.189
6 | GUCCUCUUUCACGUGCGCGUGAAAGAGAGAAGUGAACCAGAGAAAUACACGUUGUGGUAUAUUACCUGGAA [C46U U70A] | 0.255
7 | GUCCUCUUUCACGUGCGCGUGAAAGAGAGAAGUGAACCAGAGAAAGACACGUUGUGGUAUAUUACCUGGUU [C46G A71U] | 0.211
8 | GUCCUCUUUCACGUGCGCGUGAAAGAGAGAAGUGAACCAGAGAAAGAGACGUUGUGGUAUAUUACCUGGUA [C46G C48G] | 0.0704
9 | GUCCUCUUUCACGUGCGCGUGAAAGAGAGAAGUGAACCAGAGAAAUACACGUUCUGGUAUAUUACCUGGUA [C46U G54C] | 0.149
10 | GUCCUCUUUCACGUGCGCGUGAAAGAGAGAAGUGAACCAGAGAAAUACACGUUGUGGUAUAUUUCCUGGUA [C46U A64U] | 0.198
11 | GUCCUCUUUCACGUGCGCGUGAAAGAGAGAAGUGAACCAGAGAAAUACACGUUGUGGUAGAUUACCUGGUA [C46U U60G] | 0.223
12 | GUCCUCUUUCACGUGCGCGUGAAAGAGAGAAGUGAACCAGAGAAAGACACGUUGUGGUAUAUUAGCUGGUA [C46G C65G] | 0.078
13 | GUCCUCUUUCACGUGCGCGUGAAAGAGAGAAGUGAACCAGAGAAAUACACGUUGUGAUAUAUUACCUGGUA [C46U G57A] | 0.186
14 | GUCCUCUUUCACGUGCGCGUGAAAGAGAGAAGUGAACCAGAGAAAUACACGUUGUGCUAUAUUACCUGGUA [C46U G57C] | 0.0631
15 | GUCCUCUUUCACGUGCGCGUGAAAGAGAGAAGUGAACCAGAGAAAUACACGUUGUGUUAUAUUACCUGGUA [C46U G57U] | 0.234
16 | GUCCUCUUUCACGUGCGCGUGAAAGAGAGAAGUGAACCAGAGAAAGACACGUUGUGGUAUAUUACCAGGUA [C46G U67A] | 0.094
17 | GUCCUCUUUCACGUGCGCGUGAAAGAGAGAAGUGAACCAGAGAAAUACACGUUGUGGUAUAUUACCCGGUA [C46U U67C] | 0.11
18 | GUCCUCUUUCACGUGCGCGUGAAAGAGAGAAGUGAACCAGAGAAAUACACGUUGUGGUAUAUUACCAGGUA [C46U U67A] | 0.0755
19 | GUCCUCUUUCACGUGCGCGUGAAAGAGAGAAGUGAACCAGAGAAAUACACGUUGUUGUAUAUUACCUGGUA [C46U G56U] | 0.0878

Row | Variant | self-cleavage
20 | GUCCUCUUUCACGUGCGCGUGAAAGAGAGAAGUGAACCAGAGAAAUACACGUUGUGGUUUAUUACCUGGUA [C46U A59U] | 0.149
21 | GUCCUCUUUCACGUGCGCGUGAAAGAGAGAAGUGAACCAGAGAAAUACACGUUGUGGUGUAUUACCUGGUA [C46U A59G] | 0.112
22 | GUCCUCUUUCACGUGCGCGUGAAAGAGAGAAGUGAACCAGAGAAAUACACGUUGUGGUAUAAUACCUGGUA [C46U U62A] | 0.148
23 | GUCCUCUUUCACGUGCGCGUGAAAGAGAGAAGUGAACCAGAGAAAGACACGUUGUGGUAUAGUACCUGGUA [C46G U62G] | 0.14
24 | GUCCUCUUUCACGUGCGCGUGAAAGAGAGAAGUGAACCAGAGAAAGACACGUUGUGGUAUACUACCUGGUA [C46G U62C] | 0.249
25 | GUCCUCUUUCACGUGCGCGUGAAAGAGAGAAGUGAACCAGAGAAAUACACGUUGUGGUAUAUUACCUGAUA [C46U G69A] | 0.123
26 | GUCCUCUUUCACGUGCGCGUGAAAGAGAGAAGUGAACCAGAGAAAUACACGUUGUGGUAUAUUACCUGUUA [C46U G69U] | 0.172
27 | GUCCUCUUUCACGUGCGCGUGAAAGAGAGAAGUGAACCAGAGAAAGACACGUUGUGCUAUAUUACCUGGUA [C46G G57C] | 0.0539
28 | GUCCUCUUUCACGUGCGCGUGAAAGAGAGAAGUGAACCAGAGAAAGACACGUUGUGAUAUAUUACCUGGUA [C46G G57A] | 0.0965
29 | GUCCUCUUUCACGUGCGCGUGAAAGAGAGAAGUGAACCAGAGAAAUACACGUUGUGGUAUAUUACCUCGUA [C46U G68C] | 0.123
30 | GUCCUCUUUCACGUGCGCGUGAAAGAGAGAAGUGAACCAGAGAAAGACACGUUGUAGUAUAUUACCUGGUA [C46G G56A] | 0.127
31 | GUCCUCUUUCACGUGCGCGUGAAAGAGAGAAGUGAACCAGAGAAAGACACGUUGUCGUAUAUUACCUGGUA [C46G G56C] | 0.123
32 | GUCCUCUUUCACGUGCGCGUGAAAGAGAGAAGUGAACCAGAGAAAGACACGUUGUUGUAUAUUACCUGGUA [C46G G56U] | 0.173
33 | GUCCUCUUUCACGUGCGCGUGAAAGAGAGAAGUGAACCAGAGAAAUACACGUUGUGGUAUAUUAACUGGUA [C46U C65A] | 0.184
34 | GUCCUCUUUCACGUGCGCGUGAAAGAGAGAAGUGAACCAGAGAAAGACACGUUGCGGUAUAUUACCUGGUA [C46G U55C] | 0.151
35 | GUCCUCUUUCACGUGCGCGUGAAAGAGAGAAGUGAACCAGAGAAAUACACGUUGUGGUAUAUUACCUGGUU [C46U A71U] | 0.121
36 | GUCCUCUUUCACGUGCGCGUGAAAGAGAGAAGUGAACCAGAGAAAUACACGUUGUGGGAUAUUACCUGGUA [C46U U58G] | 0.0629
37 | GUCCUCUUUCACGUGCGCGUGAAAGAGAGAAGUGAACCAGAGAAAGACACGUUGUGGUAUAUUACCUGUUA [C46G G69U] | 0.105
38 | GUCCUCUUUCACGUGCGCGUGAAAGAGAGAAGUGAACCAGAGAAAUACACGGUGUGGUAUAUUACCUGGUA [C46U U52G] | 0.197
